# B1: bactericidal/permeability-increasing protein (protein)
# chain: RIKIPDYSDSFKIKHLGKGHYSFYSMDIREFQLPSSQISMVPNVGLKFSISNANIKISGKWKAQKRFLKMSGNFDLSIEGMSISADLKLGSNPTSGKPTITCSSCSSHINSVHVHISKSKVGWLIQLFHKKIESALRNKMNSQVCEKVTNSVSSELQPYFQTLPVMTKIDSVAGINYGLVAPPATTAETLDVQMKGEFYSENHHNPPPFAPPVMEFPAAHDRMVYLGLSDYFFNTAGLVYQEAGVLKMTLRDDMIPKESKFRLTTKFFGTFLPEVAKKFPNMKIQIHVSASTPPHLSVQPTGLTFYPAVDVQAFAVLPNSSLASLFLIGMHTTGSMEVSAESNRLVGELKLDRLLLELKHSNIGPFPVELLQDIMNYIVPILVLPRVNEKLQKGFPLPTPARVQLYNVVLQPHQNFLLFGADVVYK
# modifications: labeled with NT647 (Monolith NT Protein Labeling Kit RED-NHS) in the MST experiments
# notes: recombinant human BPI, aa32-487 of huBPI with N-terminal HA signal peptide, expressed in HEK293T cells
# Experiments:
# [1] = tested on: BMDCs; assay: Quantitative real-time PCR gene expression in BMDCs; assay type: cell-based, C57BL/6J mice; settings: BMDCs stimulated with BPI; rtPCR normalized to HPRT, also microarray (FIGS. 2B and C)
# Protocol: Gene expression analyses using rtPCR were performed 30 min, 1 h, 2 h, 4 h, 8 h, 12 h, 24 h and 48 h after the stimulation.
# After stimulation, cells were lysed and RNA was isolated using RNeasyR Mini Kit (#74106, Qiagen). Remaining DNA in the sample was digested using TURBO DNA-free™ Kit (#AM1907, ThermoFisher Scientific). Finally, the RNA concentration was measured with a NanoDrop 1000 (Thermo Scientific). The isolated RNA was transcribed into complementary DNA (cDNA) using the iScript™ª Advanced cDNA Synthesis Kit (#1725038, Bio-Rad).
# To analyze altered gene transcription, in particular of genes CXCL10, HPRT, IL-2, IL-6, and IL-12p40, in response to different stimulatory reagents, quantitative real-time PCR (qRT-PCR) was performed using SYBR-Green Master Mix (LightCycler® 480 SYBR Green I Master, #4707516001, Roche). Gene-specific primers synthesized by Thermo Fisher Scientific, Microsynth, Biomers, and Metabion were used. PCR reaction was performed using the HT 7900 Real-Time PCR system (Applied Biosystems). SDS software version 2.4 (Applied Biosystems) was used to analyze the gene expression, which was normalized to the housekeeping gene HPRT. 2^-ΔΔCT method was used to analyze the data.
# [2] = tested on: co-culture of lymphnode cells (LNCs) and dendritic cells (DCs); assay: Co-culture of lymph node cells and BMDCs, cytokine secretion; assay type: cell-based, C57BL/6J mice; settings: BPI 200 nM, n=5 (FIG. 12)
# Protocol: All methods mentioned in this example were carried out as described in the preceding examples. Peripheral lymph nodes of C57BL/6J mice were collected to obtain lymph node cells. The cells were isolated by pressing the lymph nodes through a […] cell strainer, flushing the homogenate with either RPMI-VLE or PBS, and collecting the cell dispersion in a 50 ml falcon tube. The suspension was centrifuged (300×g, 21° C., 8 min) and the cell pellet was resuspended in 2 to 5 ml of cell culture medium (VLE-RPMI 1640 medium containing glutamine supplemented with 10% heat-inactivated FCS, 10% penicillin-streptomycin and 50 μM sterile-filtered β-Mercaptoethanol). After this procedure the cell suspension was washed once or twice in cell culture medium or PBS by centrifugation (300×g, 21° C., 8 min). BMDCs were seeded and co-cultured with a threefold excess of peripheral lymph node cells in the presence or absence of BPI (200 nM) in in cell culture medium. Supernatans were collected and measured as described in preceding examples.
molecule,measurement,setting,value
B1,"CXCL10, IL-2, IL-6, and IL-12p40 mRNA expression",[1],"increase of CXCL10, IL-2, IL-6, and IL-12p40 mRNA expression"
same,secretion of IL-4 in co-culture of LNCs and BMDCs,[2],not observed
same,secretion of IFNγ and IL-17 in co-culture of LNCs and BMDCs,[2]; threefold excess of lymph node cells,Significant secretion

# Source: patent publication US12527862B2, “Bactericidal/permeability increasing protein for use in a method of immunization, preferably as an adjuvant in a method of vaccination” (UNIVERSITÄT REGENSBURG, priority 2018, dated 2026)
